Drawing on article PMC11066036, this text covers response (Response Units) for one variant.

Sequences and labels used below:
B1: HPK1 kinase domain (KD TSEE WT) [not stated] / HPK1 intact citron homology domain fragment (C428-E821), untagged [not stated] (parent)
chain 1: CASGPPPNSPRPGPPPSTSSPHLTAHSEPSLWNPPSRELDKPPLLPPKKEKMKRKGCALLVKLFNGCPLRIHSTAAWTHPSTKDQHLLLGAEEGIFILNRNDQEATLEMLFPSRTTWVYSINNVLMSLSGKTPHLYSHSILGLLERKETRAGNPIAHISPHRLLARKNMVSTKIQDTKGCRACCVAEGASSGGPFLCGALETSVVLLQWYQPMNKFLLVRQVLFPLPTPLSVFALLTGPGSELPAVCIGVSPGRPGKSVLFHTVRFGALSCWLGEMSTEHRGPVQVTQVEEDMVMVLMDGSVKLVTPEGSPVRGLRTPEIPMTEAVEAVAMVGGQLQAFWKHGVQVWALGSDQLLQELRDPTLTFRLLGSPRPVVVETRPVDDPTAPSNLYIQE
chain 2: DVVDPDIFNRDPRDHYDLLQRLGGGTYGEVFKARDKVSGDLVALKMVKMEPDDDVSTLQKEILILKTCRHANIVAYHGSYLWLQKLWICMEFCGAGSLQDIYQVTGSLSELQISYVCREVLQGLAYLHSQKKIHRDIKGANILINDAGEVRLADFGISAQIGAELARRLEFIGTPYWMAPEVAAVALKGGYNELCDIWSLGITAIELAELQPPLFDVHPLRVLFLMTKSGYQPPRLKEKGKWSAAFHNFIKVTLTKSPKKRPSATKMLSHQLVSQPGLNRGLILDLLDKLKN

The variants in this experiment derive from B1. In words: SPR. The note with it: with HPK1 intact citron homology domain fragment (C428-E821), left plot, plateau of the last (highest) of five successive CHD injections, about 800-900 s, CHD concentrations not given, parent: 30, read off a plot.
chain 2 L220K: the response (Response Units) amounted to 43.
